Legend:
[1] = target: integrin αIIbβ3 on human platelets (human) (UniProt P08514); assay: cell-based or functional assay
[2] = target: integrin αIIbβ3 on CHO cells (CHO-αIIbβ3) (UniProt P08514); assay: cell adhesion inhibition: CHO-αIIbβ3 cells to immobilized fibrinogen
[3] = target: integrin αvβ3 on CHO cells (CHO-αvβ3) (UniProt P06756); assay: cell adhesion inhibition: CHO-αvβ3 cells to immobilized fibrinogen

Chain of integrin αIIbβ3 on human platelets (human) (P08514 32-1039, chain 1 of 2): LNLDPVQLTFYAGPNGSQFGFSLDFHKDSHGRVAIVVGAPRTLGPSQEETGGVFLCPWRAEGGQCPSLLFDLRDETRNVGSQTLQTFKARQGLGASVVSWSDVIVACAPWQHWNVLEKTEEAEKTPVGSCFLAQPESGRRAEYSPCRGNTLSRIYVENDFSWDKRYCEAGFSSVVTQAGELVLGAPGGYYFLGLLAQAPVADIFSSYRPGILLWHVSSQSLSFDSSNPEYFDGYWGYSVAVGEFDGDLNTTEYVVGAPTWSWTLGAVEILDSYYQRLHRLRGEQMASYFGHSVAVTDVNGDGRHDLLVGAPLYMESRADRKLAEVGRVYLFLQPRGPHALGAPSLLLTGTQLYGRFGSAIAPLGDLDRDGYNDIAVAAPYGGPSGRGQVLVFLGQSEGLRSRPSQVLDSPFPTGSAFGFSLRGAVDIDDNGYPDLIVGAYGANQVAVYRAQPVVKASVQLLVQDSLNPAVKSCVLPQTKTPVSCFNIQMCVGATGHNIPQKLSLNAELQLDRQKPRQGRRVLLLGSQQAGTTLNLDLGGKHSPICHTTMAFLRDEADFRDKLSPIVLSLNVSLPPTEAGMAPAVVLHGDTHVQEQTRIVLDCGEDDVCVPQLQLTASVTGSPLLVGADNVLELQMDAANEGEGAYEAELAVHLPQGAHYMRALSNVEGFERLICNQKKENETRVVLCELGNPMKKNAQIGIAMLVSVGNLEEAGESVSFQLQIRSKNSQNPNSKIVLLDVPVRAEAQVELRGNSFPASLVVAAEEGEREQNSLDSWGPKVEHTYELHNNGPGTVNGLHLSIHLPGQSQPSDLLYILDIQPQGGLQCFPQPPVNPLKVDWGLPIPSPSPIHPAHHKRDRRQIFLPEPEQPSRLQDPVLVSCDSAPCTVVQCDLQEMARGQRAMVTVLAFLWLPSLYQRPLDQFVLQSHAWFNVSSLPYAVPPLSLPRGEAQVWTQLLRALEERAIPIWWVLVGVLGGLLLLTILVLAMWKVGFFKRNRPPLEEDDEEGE
Chain of integrin αIIbβ3 on human platelets (human) (P05106 27-788, chain 2 of 2, further chain): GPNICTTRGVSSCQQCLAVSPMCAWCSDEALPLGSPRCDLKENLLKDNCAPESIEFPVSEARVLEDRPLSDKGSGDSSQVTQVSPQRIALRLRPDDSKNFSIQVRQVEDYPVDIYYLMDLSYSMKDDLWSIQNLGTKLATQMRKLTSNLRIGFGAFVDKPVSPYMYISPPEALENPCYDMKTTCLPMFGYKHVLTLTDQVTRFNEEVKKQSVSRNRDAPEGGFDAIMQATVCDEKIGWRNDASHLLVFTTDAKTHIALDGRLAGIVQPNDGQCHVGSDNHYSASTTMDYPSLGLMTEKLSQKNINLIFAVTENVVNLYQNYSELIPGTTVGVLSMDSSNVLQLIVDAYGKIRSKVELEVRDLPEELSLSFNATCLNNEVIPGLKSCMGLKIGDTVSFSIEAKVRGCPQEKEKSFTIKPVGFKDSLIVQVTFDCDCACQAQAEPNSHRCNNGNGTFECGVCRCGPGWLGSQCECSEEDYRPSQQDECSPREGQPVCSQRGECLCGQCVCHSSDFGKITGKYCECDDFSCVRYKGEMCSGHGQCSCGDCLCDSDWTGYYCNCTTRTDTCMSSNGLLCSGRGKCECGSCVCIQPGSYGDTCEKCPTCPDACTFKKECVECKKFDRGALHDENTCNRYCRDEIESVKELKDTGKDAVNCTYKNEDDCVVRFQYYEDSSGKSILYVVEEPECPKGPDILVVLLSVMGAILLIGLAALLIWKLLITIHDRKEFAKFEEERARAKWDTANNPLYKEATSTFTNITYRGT

Row | Substance | Platelet aggregation IC50 (nM), ADP [1] [nM] | Platelet aggregation IC50 (nM), Collagen [1] [nM] | IC50 [2] [nM] | Platelet Aggregation IC50 [1] [nM] | IC50 [3] [nM]
1 | trimucrin mutant T/KWN | 125 | 67.7 | 1780 | – | –
2 | trimucrin mutant T/KRR | 213 | 30.9 | 7330 | – | –
3 | trimucrin mutant T/KHR | 256 | 80.1 | 5980 | – | –
4 | rhodostomin | 81.5 | 66.8 | 59.5 | 83.2 | 13
5 | trimucrin mutant T/MGKWN | 78 | 48.5 | 1720 | – | –
6 | trimucrin mutant T/K | 563 | 105 | 27300 | – | –
7 | trimucrin mutant T/KS | 1080 | 562 | 39900 | – | –
8 | trimucrin mutant T/KWNR | 54.6 | 52.4 | > 692 | – | –
9 | trimucrin mutant T/KYR | 117 | 61 | 1460 | – | –
10 | trimucrin mutant T/IEEGK | 1050 | 217 | 97600 | – | –
11 | trimucrin mutant T/KRKR | 138 | – | 13900 | – | –
12 | rhodostomin mutant R/K | 152 | – | 89.8 | – | –
13 | trimucrin (TMV-7) | 184 | 83.8 | – | – | –
14 | trimucrin mutant T/KWR | 106 | 26.3 | 290 | – | –
15 | trimucrin T/KRRR mutant | 127 | 30.6 | 6580 | 127 | –
16 | trimucrin mutant T/KFRFH | 120 | 63.1 | 3190 | – | –
17 | trimucrin mutant T/KRRFH | 192 | 66.9 | 5600 | – | –
18 | trimucrin mutant T/IEEGKS | 563 | 632 | > 195000 | – | –
19 | trimucrin mutant T/KY | 246 | 44.9 | 3300 | – | –
20 | trimucrin mutant T/KR | 141 | 49.9 | 6310 | – | –
21 | trimucrin mutant T/KF | 154 | 68.9 | 5550 | – | –
22 | trimucrin mutant T/IEEGKRR | 511 | 57.5 | 33800 | – | –
23 | trimucrin mutant T/KH | 382 | 99.3 | 15700 | – | –

Source: patent US20200164114A1
